Results reported in patent publication US20250027068.
Substitutions are numbered along the chain they refer to.

B1: PRT-650 (protein)
chain: MQITSVWTKGVTPLTPEQFRYNNEDVIHAPYLAHQGWYDITKAFDGKDNLLCGAATAGNMLHWWFDQNKTEIEAYLSKHPEKQKIIFNNQKLFDLKAAIDTKDSQTNSQLFNYFRDKAFPNLSARQLGVMPDLVLDMFINGYYLNVTKTQSTDVNRPYQTKDPRGGIFDAVFTRGDQTTLLTARHDLKNKGLNDISTIIKQELTEGRALALSHTYANVSISHVINLWGADFNAEGNLEAIYVTDSDANASIGMKKYFVGINAHGHVAISAKKIEGENIGAQVLGLFTLSSGKDIWQKLSLEHHHHHH
B2: PRT-621 (protein)
chain: B1 chain with K91E, T147F, T160D, P163K, G191T, D194E, T197Q, T204S, E205S
B3: PRT-605 (protein)
chain: B1 chain with D66E, H79Y, P80G, E81D, K82T, K91E, T147F, T160D, P163K, D293E
B4: PRT-611 (protein)
chain: B1 chain with K91E, T147F, T160D, P163K, H185Y, K188Y
B5: PRT-619 (protein)
chain: B1 chain with S5T, K91E, T147F, T160D, P163K, K190G, N193E, T204K, E205N, E238S
B6: PRT-651 (protein)
chain: B1 chain with K91E, P120G, T147G, K161R, P163K
B7: PRT-681 (protein)
chain: B1 chain with H79Y, K91E, K96R, D100N, T147F, T160D, P163K, F257Y, D293E
B8: PRT-657 (protein)
chain: B1 chain with K91E, K96R, A97E, D100N, N107D, Q109K, T147F, T160D, P163K
B9: PRT-633 (protein)
chain: B1 chain with R20T, Y21N, L32K, H34N, K91E, T147F, T160D, P163K, R207K
B10: PRT-610 (protein)
chain: B1 chain with K91E, T147F, T160D, P163K, F257Y, K271Y
B11: PRT-684 (protein)
chain: MQITSVWTKGVTPLTPEQFTNNNEDVIHAPYLANQGWYDITKTFNGKDNLLCGAATAGNMLHWWFDQNKEEIEAYLKKHPEKQKIIFNNQELFDLKKAIDTKDSQTNSALFNYFRDKAFPNLSARQLGVMPDLVLDMFINGYYLNVFKTQSTDVNRPYQTKDKRGGIFDAVFTRGDQTTLLTARHDLKNKGLNEISDIIKQELTEGKALALSHTYANVSISHVINLWGADFNAEGNLIAIYVTDSDANASIGMKKYFVGVNSHGKVAISAKKIEGENIGAQVLGLFTLSSGQDIWQKLSLEHHHHHH
B12: PRT-568 (protein)
chain: MANQEIRYSEATPSHITSVWTKGVTPPTQFIQNEDVLHAPYIANQGWYDITKTFNGKDDLLCGAATAGNMLHWWFDQNKTQIENYLKKHPEKQKINFNGEQMFDVKEAIDTKDSQTDSALFSYFKDKAFPYLSTKHLGVFPDHVIDMFINGYRLSLTNHGPTPVKRQTKDPRGGIFDAVFTRGDQSKLLTARHDFKEKTLNEISQLIKQELTEGKALGLSHTYANVRINHVINLWGADFNAEGNLEAIYVTDSDSNASIGMKKYYVGVNAAGHVAISAKEIEGDNIGAQVLGLFTLSTGQDIWQQTNLEHHHHHH
B13: PRT-663 (protein)
chain: MQITSVWTKGVTPPTPEQFRYNNEDVIHAPYLAHQGWYDITKTFDGKDNLLCGAATAGNMLHWWFDQNKTEIEAYLSKHPEKQKIIFNNQELFDLKEAINTKDSQTNSQLFNYFRDKAFPNLSARQLGVMPDLVLDMFINGYYLNVFKTQSTDVNRPYQDKDKRGGIFDAVFTRGDQTKLLTARHDLKNKGLNEISTLIKQELTEGKALALSHTYANVSISHVINLWGADFNAEGNLEAIYVTDSDANASIGMKKYFVGINASGHVAISAKKIEGENIGAQVLGLFTLSTGKDIWQKLSLEHHHHHH
B14: PRT-642 (protein)
chain: MQITSVWTKGVTPLTPEQFRYNNEDVIHAPYLAHQGWYDITKTFNRGDNLLCGAATAGNMLHWWFDQNKTEIEAYLSKHPEKQKIIFNNQELFDLKAAIDTKDSQTNSQLFNYFRDKAFPNLSARQGGVMPDLVLDMFINGYYLNVFKTQSTDVNRPYQDKDKRGGIFDAVFTRGDQTTLLTARHDLKNKGLNDISTIIKQELTEGRALALSHTYANVSISHVINLWGADFNAEGNLEAIYVTDSDADEKIGMKKYFVGINAHGHVAISAKKIEGENIGAQVLGLFTLSSGKDIWQKLSLEHHHHHH
B15: PRT-641 (protein)
chain: B14 chain with F44M, R46G, G47K, N49D, G127R, D248R, K250N
B16: PRT-697 (protein)
chain: MTITSVWTKGVIPPTPEDFRYNNEDVLHAPYVPNQGWYDITKTFDGGDNLLCGAATAGNMLHWWFDQNKEEIERYLKKYPEKQKIIFNNQELFDVRAAINTKDSQTNSKLFNYFRDKAFPNLSARQLGVMPDLVLDMFINGYYLNLGKTQSTDVNRPYQDRDKRGGIFDHVFGRGDQTTLLTARHDLKNGGLNEISDLIKQELQSGKALALSHTYANVRINHVINLWGADFDAEGNLIAIYVTDSDANSSIGMKKYYVGVNANGKVAISAKKIEGDNIGAQVLGLFTLSTGQEIWQKLSLEHHHHHH
B17: PRT-660 (protein)
chain: MQITSVWTKGVTPLTPEQFRYNNEDVIHAPYLAHQGWYDITKAFDGKDNLLCGAATAGNMLHWWFDQNKTEIEAYLSKHPEKQKIIFNNQELFDLRKAINTKDDQKESALFNYFRKKAFPNLSARQLGVMPDLVLDMFINGYYLNVFKTQSTDVNRPYQDKDKRGGIFDAVFTRGDQTTLLTARHDLKNKGLNDISTIIKQELTEGRALALSHTYANVSISHVINLWGADFNAEGNLEAIYVTDSDANASIGMKKYFVGINAHGHVAISAKKIEGENIGAQVLGLFTLSSGKDIWQKLSLEHHHHHH

Biological target: pooled human IgG (human IgG1, 2, 3 and 4)

| Protein | Enzyme Activity Endpoint Assay (purified): Fab′2 [ng/µL] | Enzyme Activity Endpoint Assay (purified): Fc [ng/µL] | Enzyme Activity Endpoint Assay (purified): IgG [ng/µL] | Enzyme Activity Endpoint Assay (purified): scIgG [ng/µL] |
| --- | --- | --- | --- | --- |
| B1 | 522 | 452 | 130 | 600 |
| B2 | 976 | 514 | 0 | 0 |
| B3 | 617 | 357 | 100 | 157 |
| B4 | 924 | 490 | 0 | 0 |
| B5 | 140 | 283 | 102 | 591 |
| B6 | 542 | 367 | 168 | 359 |
| B7 | 915 | 492 | 0 | 0 |
| B8 | 430 | 250 | 0 | 0 |
| B9 | 749 | 429 | 0 | 0 |
| B10 | 688 | 381 | 0 | 0 |
| B11 | 1060 | 542 | 0 | 0 |
| B12 | 880 | 402 | 0 | 0 |
| B13 | 825 | 456 | 0 | 0 |
| B14 | 175 | 260 | 360 | 760 |
| B15 | 975 | 336 | 0 | 0 |
| B16 | 701 | 430 | 221 | 161 |
| B17 | 161 | 320 | 105 | 668 |
